From the supplement of paper PMC5998384 come the findings set out here.

The test system of series [1] is HeLa Kyoto. Description: melting temperature (median over replicates), in situ; higher = more thermally stable.
For series [2], the system named is HeLa Kyoto. Nature of the series: thermal stability score vs G1/S (z-score of summed log2 fold changes over temperatures); higher = more thermally stable than in G1/S.
Series [3] has as its system HeLa Kyoto. Description: solubility in G1/S (NP-40 vs SDS abundance) (log2 ratio); higher = more soluble. The note with it: cell cycle stage: G1/S.
Series [4] deals with HeLa Kyoto. Nature of the series: solubility change mitosis vs G1/S (difference of NP-40 vs SDS log2 ratios) (log2 ratio difference); higher = more soluble in mitosis.
Where [5] appears, read: cell cycle stage: early G1 (4.5 h after nocodazole release).
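Wherever melting temperature (median over replicates), in situ is given: HeLa Kyoto cells synchronized by double thymidine or nocodazole block, proteins quantified by TMT10plex mass spectrometry, three independent biological replicates.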
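Wherever solubility change mitosis vs G1/S (difference of NP-40 vs SDS log2 ratios) is given: synchronized HeLa Kyoto cells (double thymidine block for G1/S, nocodazole release for mitosis), protein amounts in NP-40 versus SDS lysates quantified by mass spectrometry, three biological replicates.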
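Wherever solubility in G1/S (NP-40 vs SDS abundance) is given: HeLa Kyoto cells arrested at G1/S by double thymidine block, proteins quantified by TMT10plex mass spectrometry in mild NP-40 versus SDS extracts, three biological replicates.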
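Wherever thermal stability score vs G1/S (z-score of summed log2 fold changes over temperatures) is given: synchronized HeLa Kyoto cells, proteins quantified by TMT10plex mass spectrometry, three biological replicates, mitosis taken 0.5 h after nocodazole release, G1/S directly after double thymidine block.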

“MSGLVLGQRDEPAGHRLSQEEILGSTRLVSQGLEALRSEHQAVLQSLSQTIECLQQGGHEEGLVHEKARQLRRSMENIELGLSEAQVMLALASHLSTVESEKQKLRAQVRRLCQENQWLRDELAGTQQRLQRSEQAVAQLEEEKKHLEFLGQLRQYDEDGHTSEEKEGDATKDSLDDLFPNEEEEDPSNGLSRGQGATAAQQGGYEIPARLRTLHNLVIQYAAQGRYEVAVPLCKQALEDLERTSGRGHPDVATMLNILALVYRDQNKYKEAAHLLNDALSIRESTLGPDHPAVAATLNNLAVLYGKRGKYKEAEPLCQRALEIREKVLGTNHPDVAKQLNNLALLCQNQGKYEAVERYYQRALAIYEGQLGPDNPNVARTKNNLASCYLKQGKYAEAETLYKEILTRAHVQEFGSVDDDHKPIWMHAEEREEMSKSRHHEGGTPYAEYGGWYKACKVSSPTVNTTLRNLGALYRRQGKLEAAETLEECALRSRRQGTDPISQTKVAELLGESDGRRTSQEGPGDSVKFEGGEDASVAVEWSGDGSGTLQRSGSLGKIRDVLRRSSELLVRKLQGTEPRPSSSNMKRAASLNYLNQPSAAPLQVSRGLSASTMDLSSSS [KLC4]”: the melting temperature in the series with HeLa Kyoto [1] (cell cycle stage: G1/S) was found to be 49.8 °C; in the series on HeLa Kyoto [1] (cell cycle stage: mitosis), 51.3 °C. Moreover, the thermal stability score with HeLa Kyoto [2] (setting [5]) is 0.719; in the series with HeLa Kyoto [2] (cell cycle stage: mitosis) it was 1.19. Also, in the series on HeLa Kyoto [3], the “solubility in G1/S (log2)” value is 0.299. In addition, the “solubility change mitosis (log2)” value in the series with HeLa Kyoto [4] was -0.12.
In the case of “MSGPVPSRARVYTDVNTHRPREYWDYESHVVEWGNQDDYQLVRKLGRGKYSEVFEAINITNNEKVVVKILKPVKKKKIKREIKILENLRGGPNIITLADIVKDPVSRTPALVFEHVNNTDFKQLYQTLTDYDIRFYMYEILKALDYCHSMGIMHRDVKPHNVMIDHEHRKLRLIDWGLAEFYHPGQEYNVRVASRYFKGPELLVDYQMYDYSLDMWSLGCMLASMIFRKEPFFHGHDNYDQLVRIAKVLGTEDLYDYIDKYNIELDPRFNDILGRHSRKRWERFVHSENQHLVSPEALDFLDKLLRYDHQSRLTAREAMEHPYFYTVVKDQARMGSSSMPGGSTPVSSANMMSGISSVPTPSPLGPLAGSPVIAAANPLGMPVPAAAGAQQ [CSNK2A1]”, the melting temperature in the series with HeLa Kyoto [1] (cell cycle stage: G1/S) was 51.5 °C; with HeLa Kyoto [1] (cell cycle stage: mitosis), 50.7 °C. Further, the thermal stability score in the series with HeLa Kyoto [2] (setting [5]) was determined as 1.11; in the series with HeLa Kyoto [2] (cell cycle stage: mitosis), 1.31. In addition, in the series with HeLa Kyoto [3], the “solubility in G1/S (log2)” value is -0.00675. In addition, the “solubility change mitosis (log2)” value in the series on HeLa Kyoto [4] was found to be 0.0535.
With “MSGRGAGGFPLPPLSPGGGAVAAALGAPPPPAGPGMLPGPALRGPGPAGGVGGPGAAAFRPMGPAGPAAQYQRPGMSPGNRMPMAGLQVGPPAGSPFGAAAPLRPGMPPTMMDPFRKRLLVPQAQPPMPAQRRGLKRRKMADKVLPQRIRELVPESQAYMDLLAFERKLDQTIARKRMEIQEAIKKPLTQKRKLRIYISNTFSPSKAEGDSAGTAGTPGGTPAGDKVASWELRVEGKLLDDPSKQKRKFSSFFKSLVIELDKELYGPDNHLVEWHRMPTTQETDGFQVKRPGDLNVKCTLLLMLDHQPPQYKLDPRLARLLGVHTQTRAAIMQALWLYIKHNQLQDGHEREYINCNRYFRQIFSCGRLRFSEIPMKLAGLLQHPDPIVINHVISVDPNDQKKTACYDIDVEVDDPLKAQMSNFLASTTNQQEIASLDVKIHETIESINQLKTQRDFMLSFSTDPQDFIQEWLRSQRRDLKIITDVIGNPEEERRAAFYHQPWAQEAVGRHIFAKVQQRRQELEQVLGIRLT [SMARCD2]”, the melting temperature in the series on HeLa Kyoto [1] (cell cycle stage: G1/S) was 48 °C; in the series with HeLa Kyoto [1] (cell cycle stage: mitosis), 49.2 °C. For the same sequence, the thermal stability score with HeLa Kyoto [2] (setting [5]) is 0.352; with HeLa Kyoto [2] (cell cycle stage: mitosis), 1.15. Besides, the “solubility in G1/S (log2)” value in the series on HeLa Kyoto [3] came to 0.445. Moreover, the “solubility change mitosis (log2)” value in the series on HeLa Kyoto [4] came out at 0.00253.
In the case of “MSGTKPDILWAPHHVDRFVVCDSELSLYHVESTVNSELKAGSLRLSEDSAATLLSINSDTPYMKCVAWYLNYDPECLLAVGQANGRVVLTSLGQDHNSKFKDLIGKEFVPKHARQCNTLAWNPLDSNWLAAGLDKHRADFSVLIWDICSKYTPDIVPMEKVKLSAGETETTLLVTKPLYELGQNDACLSLCWLPRDQKLLLAGMHRNLAIFDLRNTSQKMFVNTKAVQGVTVDPYFHDRVASFYEGQVAIWDLRKFEKPVLTLTEQPKPLTKVAWCPTRTGLLATLTRDSNIIRLYDMQHTPTPIGDETEPTIIERSVQPCDNYIASFAWHPTSQNRMIVVTPNRTMSDFTVFERISLAWSPITSLMWACGRHLYECTEEENDNSLEKDIATKMRLRALSRYGLDTEQVWRNHILAGNEDPQLKSLWYTLHFMKQYTEDMDQKSPGNKGSLVYAGIKSIVKSSLGMVESSRHNWSGLDKQSDIQNLNEERILALQLCGWIKKGTDVDVGPFLNSLVQEGEWERAAAVALFNLDIRRAIQILNEGASSEKGDLNLNVVAMALSGYTDEKNSLWREMCSTLRLQLNNPYLCVMFAFLTSETGSYDGVLYENKVAVRDRVAFACKFLSDTQLNRYIEKLTNEMKEAGNLEGILLTGLTKDGVDLMESYVDRTGDVQTASYCMLQGSPLDVLKDERVQYWIENYRNLLDAWRFWHKRAEFDIHRSKLDPSSKPLAQVFVSCNFCGKSISYSCSAVPHQGRGFSQYGVSGSPTKSKVTSCPGCRKPLPRCALCLINMGTPVSSCPGGTKSDEKVDLSKDKKLAQFNNWFTWCHNCRHGGHAGHMLSWFRDHAECPVSACTCKCMQLDTTGNLVPAETVQP [MIOS]”, the figures for the melting temperature in the series on HeLa Kyoto [1] (cell cycle stage: G1/S) and in the series on HeLa Kyoto [1] (cell cycle stage: mitosis) were 53.9 °C and 53 °C, respectively. The figures for the thermal stability score in the series on HeLa Kyoto [2] (setting [5]) and in the series with HeLa Kyoto [2] (cell cycle stage: mitosis) were -0.829 and -1.48, respectively. The “solubility in G1/S (log2)” value with HeLa Kyoto [3] was -0.271. The “solubility change mitosis (log2)” value in the series with HeLa Kyoto [4] was found to be 0.0327.
In the case of “MSGWADERGGEGDGRIYVGNLPTDVREKDLEDLFYKYGRIREIELKNRHGLVPFAFVRFEDPRDAEDAIYGRNGYDYGQCRLRVEFPRTYGGRGGWPRGGRNGPPTRRSDFRVLVSGLPPSGSWQDLKDHMREAGDVCYADVQKDGVGMVEYLRKEDMEYALRKLDDTKFRSHEGETSYIRVYPERSTSYGYSRSRSGSRGRDSPYQSRGSPHYFSPFRPY [SRSF9]”, the melting temperature came out at 50 °C with HeLa Kyoto [1] (cell cycle stage: G1/S) and 50.6 °C with HeLa Kyoto [1] (cell cycle stage: mitosis). Further, the results for the thermal stability score in the series on HeLa Kyoto [2] (setting [5]) and with HeLa Kyoto [2] (cell cycle stage: mitosis) were -3.88 and -3.72, respectively. The “solubility in G1/S (log2)” value in the series on HeLa Kyoto [3] is -0.159. Besides, the “solubility change mitosis (log2)” value in the series with HeLa Kyoto [4] was found to be 0.706.
